Where two headings read alike, the source gives them in different places.
What was measured:
[1] = Phenol nitration (NaNO2/H2O2), HPLC analysis; assay type: biochemical; settings: 40 min, room temperature, substrate and oxidant 1.0 mM, 40 mM NO2−, 0.2 μM catalyst, pH 6.5, 50% TFE
Procedure: For the compound Fe(III)-3,7,12,17-tetramethyl-porphyrin-2(18)-N9epsilon-(Ace-Asp1-Glu2-Gln3-Gln4-Leu5-His6-Ser7-Gln8-Lys9-Arg10-Lys11-Ile12-Thr13-Leu14-NH2)-18(2)-N9epsilon-(Ace-Asp1-Glu2-Gln3-Gln4-Leu5-Ser6-Ser7-Gln8-Lys9-Arg10-NH2)-di-propionammide, whose synthesis is described in example 1, the ability to catalyze phenol nitration was evaluated. […] The concentrations of the starting material and products were determined from calibration curves constructed using commercial samples and 4-cyanophenol as internal standard. Standard incubation for phenol nitration were performed at 1 mM phenol in the presence of 0.2 μM catalyst, 20 mM NaNO2 and 3 mM H2O2 in phosphate buffer, pH 6.5, 50% TFE (v/v).
The reactions were performed at room temperature with an incubation time of 40 min. […] The yield of 4- and 2-nitrophenol at 40 min reaction time increased by increasing H2O2 NO2″ and phenol concentrations. The maximum yield of nitrophenols (4- and 2-) was obtained at a substrate and oxidant concentrations of 1.0 mM, and at 40 mM NO2^− concentration, respectively.

[2] = Peroxidase activity: ABTS oxidation with H2O2 (formation of ABTS+• radical cation at 660 nm); assay type: biochemical; settings: for Specific activity: ABTS oxidation with H2O2, pH 6.5
Procedure: The peroxidase activity of the compound on the secondary substrate ABTS was evaluated by following the formation of the ABTS^+• radical cation, in the presence of H2O2.
The reaction was followed by using spectrophotometry, measuring the appearance of the products in the reaction medium. The formation of ABTS^+• cation radical was followed at 660 nm (λmax (ε)=660 nm (1.40×10^4 M^−1cm^−1)). The reaction was performed in 50% TFE (v/v) 100 mM phosphate buffer, pH 6.5, using a 2.0×10^−7 M catalyst concentration.
Kinetic parameters of the compound were determined by varying the H2O2 concentration using fixed concentrations of the reducing substrates, and vice versa.
In more details, in the experiments performed at various H2O2 concentrations (in the range 0.01÷ 200 mM) the ABTS concentration was kept constant at 0.1 mM. In the experiments performed at various ABTS concentrations (in the range 0.005÷ 0.1 mM) the H2O2 concentration was 50 mM.
The experiments were performed in 50% TFE (v/v) 100 mM phosphate buffer, pH 6.5. As described in the example 10, the catalytic process was evaluated by following the formation of the ABTS^+• radical cation at 660 nm (c=[…] cm^−1). Kinetic parameters of the compound were determined by varying the H2O2 concentration using fixed concentrations of the reducing substrates, and vice versa.
In more details, in the first experiment the ABTS and the conjugate concentrations were kept constant at 0.1 mM and 2 10^−7 M, respectively, and the H2O2 concentration was varied in the range 10-100 mM. In the second experiment, the H2O2 and the conjugate concentrations were fixed at 50 mM and 2 10^−7 M, respectively, and the ABTS concentration was varied in the range 0.005÷ 0.1 mM.

[3] = Peroxidase activity: guaiacol oxidation with H2O2 (tetraguaiacol formation at 470 nm); assay type: biochemical
Procedure: The peroxidase activity on the guaiacol substrate was evaluated by following the formation of guaiacol oxidation product, tetraguaiacol. Changes in the absorbance at 470 nm were measured, considering a ε470=2.66×10^4 M^−1cm^−1.
In details, in the experiments performed at various H2O2 concentrations (in the range 1÷ 40 mM), the guaiacol concentration was kept constant at 0.1 mM. In the experiments performed at various guaiacol concentrations, in the range 0.0025÷ 0.07 mM, the H2O2 concentration was 10 mM.

[4] = ABTS oxidation with H2O2, pH 7.0; cited from earlier work
[5] = in the presence of lactoperoxidase; cited from earlier work
[6] = ABTS oxidation with H2O2, pH 6.5, 50% TFE (v/v) 100 mM phosphate buffer
[7] = ABTS oxidation with H2O2, pH 6.5, 50% TFE (v/v) 100 mM phosphate buffer, read-out: Km^H2O2
[8] = AH2 = ABTS, pH 6.5, 50% TFE (v/v) 100 mM phosphate buffer, read-out: Km^AH2

Fe(III)-3,7,12,17-tetramethyl-porphyrin-2(18)-N9epsilon-(Ace-Asp1-Glu2-Gln3-Gln4-Leu5-His6-Ser7-Gln8-Lys9-Arg10-Lys11-Ile12-Thr13-Leu14-NH2)-18(2)-N9epsilon-(Ace-Asp1-Glu2-Gln3-Gln4-Leu5-Ser6-Ser7-Gln8-Lys9-Arg10-NH2)-di-propionammide [Example 1]
total yield of nitrophenols (4- and 2-) [1]: about 14.8% | Specific activity [2]: 6.269 mol/g/min | kcat [2, 6]: 370.9 ± 14 s⁻¹ | kcat ([2]; ABTS oxidation with H2O2, pH 6.5, 50% TFE (v/v) 100 mM phosphate buffer, listed as Esempio 1): 371 s⁻¹ | Km [2, 7]: 44000 µM | Km [2, 8]: 84 µM | Km ([2]; AH2 = ABTS, pH 6.5, 50% TFE, 2.0×10^−7 M catalyst, read-out: Km^AH2): 84 ± 2 µM | specific activity for ABTS oxidation ([2]; pH=6.5): 104 mmol/g/s | Km ([3]; AH2 = guaiacol): 9.2 ± 0.4 µM | kcat ([3]; guaiacol oxidation with H2O2): 8.0 ± 0.1 s⁻¹ | specific activity for guaiacol oxidation relative to horseradish peroxidase ([3]; versus horseradish peroxidase): two times higher

H-VQKCAQCHTVE-OH (cysteine pairing not given here) [MP11]
Specific activity [4]: 0.000419 mol/g/min | kcat [4]: 0.013 s⁻¹

3,7,12,17-tetramethyl-porphyrin-2(18)-N9epsilon-(Ace-Asp1-Glu2-Gln3-Gln4-Leu5-His6-Ser7-Gln8-Lys9-Arg10-Lys11-Ile12-Thr13-Leu14-NH2)-18(2)-N9epsilon-(Ace-Asp1-Leu2-Gln3-Gln4-Leu5-Ser6-Ser7-Gln8-Lys9-Arg10-NH2)-di-propionamide [Example 8]
Specific activity [2]: 6.463 mol/g/min | kcat [2, 6]: 381 s⁻¹ | Km [2, 7]: 96000 µM | Km [2, 8]: 115 µM

3,7,12,17-tetramethyl-porphyrin-2 (18)-N9epsilon-(Ace-Asp1-Glu2-Gln3-Gln4-Leu5-His6-Ser7-Gln8-Lys9-Arg10-Lys11-Ile12-Thr13-Leu14-NH2)-18(2)-N9epsilon-(Ace-Asp1-Glu2-Gln3-Gln4-Leu5-Gly6-Ser7-Gln8-Lys9-Arg10-NH2)-di-propionamide [Example 7]
Specific activity [2]: 7.976 mol/g/min | kcat [2, 6]: 468 s⁻¹ | Km [2, 7]: 46000 µM | Km [2, 8]: 125 µM

H-Cys-Ala-Gln-Cys-His-Thr-Val-Glu-OH (CAQCHTVE; heme covalently attached; printed: Cys-Ala-Gln-Cys-His-Thr-Val-Glu-) [MP8, microperoxidase, mono-adduct porphyrin obtained from proteolytic digestion of cytochromes c]
Specific activity [4]: 0.000104 mol/g/min | kcat [4]: 0.0026 s⁻¹

lactoperoxidase
total yield of nitrophenols relative to the compound of example 1 [5]: fourfold higher

3,7,12,17-tetramethyl-porphyrin-2(18)-N9epsilon-(Ace-Asp1-Glu2-Gln3-Gln4-Leu5-His6-Ser7-Gln8-Lys9-Leu10-Lys11-Ile12-Thr13-Leu14-NH2)-18(2)-N9epsilon-(Ace-Asp1-Glu2-Gln3-Gln4-Leu5-Ser6-Ser7-Gln8-Lys9-Arg10-NH2)-di-propionamide [Example 5]
Specific activity [2]: 11.72 mol/g/min | kcat [2, 6]: 685 s⁻¹ | Km [2, 7]: 54000 µM | Specific activity ([2]; listed as Esempio 5): 11.716 mol/g/min | Km [2, 8]: 38 µM

3,7,12,17-tetramethyl-porphyrin-2(18)-N9epsilon-(Ace-Asp1-Glu2-Gln3-Gln4-Leu5-His6-Ser7-Gln8-Lys9-Arg10-Lys11-Ile12-Thr13-Leu14-NH2)-18(2)-N9epsilon-(Ace-Asp1-Glu2-Gln3-Gln4-Leu5-Ser6-Ser7-Gln8-Lys9-Leu10-NH2)-di-propionamide [Example 9]
Specific activity [2]: 2.890 mol/g/min | kcat [2, 6]: 169 s⁻¹ | Km [2, 7]: 20000 µM | Km [2, 8]: 29 µM

3,7,12,17-tetramethylporphyrin-18(2)-propionicacid-2(18)-N9epsilon-(Ac-Asp1-Glu2-Gln3-Gln4-Leu5-His6-Ser7-Gln8-Lys9-Arg10-Lys11-Ile12-Thr13-Leu14-NH2)propionamide [Example 4]
Specific activity [2]: 17.86 mol/g/min | kcat [2, 6]: 688 s⁻¹ | Km [2, 7]: 80000 µM | Specific activity ([2]; listed as Esempio 4): 17.860 mol/g/min | Km [2, 8]: 130 µM
